# Data taken from the supplement of paper PMC6757056.
# ± gives the standard deviation of the averaged measurements.
# B1: library; a variant is named by its letters at N, in order (parent)
# chain: GCUGUCACCGGUGUAUUACCCUAGUGGUCGACCGGUCUGAUGAGUCUNNNNNNAGACGAAACAGC
# Assays:
# [1] = variants of: B1; assay: normalized RNA/DNA level with ligand (relative to sTRSVctl = 100) (log10 (% of sTRSVctl)); ligand: hypoxanthine (xanthine aptamer); higher = less ribozyme self-cleavage, higher mRNA level; details: ligand concentration (+) RNA-Seq: 5 mM, HEK293T, reporter: mCherry (pCS4076), ligand present: yes
# Outline: (§1)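 Library plasmids carrying ribozyme switches linked to mCherry, or to eGFP in some ligand experiments, were transfected into HEK293T at 4 µg per 6-well well, with any ligand added 1 h earlier. Seventy-two hours on, total RNA was extracted with EDTA and reverse-transcribed, amplified, barcoded and sequenced. RNA level was RNA over DNA reads normalized to a spiked-in non-cleaving sequence or to the top sequences, then scaled and log-transformed. The top set was 25 sequences, the transform was ×100 and log10, and sequences needed ≥100 DNA reads.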
# [2] = variants of: B1; assay: normalized RNA/DNA level without ligand (relative to sTRSVctl = 100) (log10 (% of sTRSVctl)); ligand: hypoxanthine (xanthine aptamer); higher = less ribozyme self-cleavage, higher mRNA level; details: HEK293T, reporter: mCherry (pCS4076), ligand present: no
# Outline: as §1
Variant,normalized RNA/DNA level with ligand (log10) [1],normalized RNA/DNA level without ligand (log10) [2]
GCUGUCACCGGUGUAUUACCCUAGUGGUCGACCGGUCUGAUGAGUCUUCCGAAAGACGAAACAGC [UCCGAA],1.94 ± 0.0047,1.631 ± 0.0036
GCUGUCACCGGUGUAUUACCCUAGUGGUCGACCGGUCUGAUGAGUCUUCCGAUAGACGAAACAGC [UCCGAU],1.965 ± 0.013,1.774 ± 0.0086
GCUGUCACCGGUGUAUUACCCUAGUGGUCGACCGGUCUGAUGAGUCUUCCGACAGACGAAACAGC [UCCGAC],1.95 ± 0.022,1.796 ± 0.016
GCUGUCACCGGUGUAUUACCCUAGUGGUCGACCGGUCUGAUGAGUCUACCGGAAGACGAAACAGC [ACCGGA],1.94 ± 0.039,1.903 ± 0.014
GCUGUCACCGGUGUAUUACCCUAGUGGUCGACCGGUCUGAUGAGUCUUCCCUAAGACGAAACAGC [UCCCUA],1.92 ± 0.033,1.79 ± 0.043
GCUGUCACCGGUGUAUUACCCUAGUGGUCGACCGGUCUGAUGAGUCUUCCCUCAGACGAAACAGC [UCCCUC],1.98 ± 0.03,1.66 ± 0.14
GCUGUCACCGGUGUAUUACCCUAGUGGUCGACCGGUCUGAUGAGUCUUCCCUUAGACGAAACAGC [UCCCUU],1.92 ± 0.051,1.781 ± 0.017
GCUGUCACCGGUGUAUUACCCUAGUGGUCGACCGGUCUGAUGAGUCUACCCUUAGACGAAACAGC [ACCCUU],1.974 ± 0.013,1.92 ± 0.06
GCUGUCACCGGUGUAUUACCCUAGUGGUCGACCGGUCUGAUGAGUCUACCCUAAGACGAAACAGC [ACCCUA],1.937 ± 0.014,1.85 ± 0.047
GCUGUCACCGGUGUAUUACCCUAGUGGUCGACCGGUCUGAUGAGUCUACCCUCAGACGAAACAGC [ACCCUC],1.936 ± 0.0052,1.895 ± 0.00022
GCUGUCACCGGUGUAUUACCCUAGUGGUCGACCGGUCUGAUGAGUCUUCCGCUAGACGAAACAGC [UCCGCU],1.94 ± 0.055,1.944 ± 0.0031
GCUGUCACCGGUGUAUUACCCUAGUGGUCGACCGGUCUGAUGAGUCUUCCGCAAGACGAAACAGC [UCCGCA],1.9294 ± 0.00025,1.807 ± 0.014
GCUGUCACCGGUGUAUUACCCUAGUGGUCGACCGGUCUGAUGAGUCUUCCGCCAGACGAAACAGC [UCCGCC],1.992 ± 0.013,1.773 ± 0.015
GCUGUCACCGGUGUAUUACCCUAGUGGUCGACCGGUCUGAUGAGUCUACCGAAAGACGAAACAGC [ACCGAA],1.897 ± 0.018,1.74 ± 0.045
GCUGUCACCGGUGUAUUACCCUAGUGGUCGACCGGUCUGAUGAGUCUACCGACAGACGAAACAGC [ACCGAC],1.967 ± 0.0065,1.825 ± 0.017
GCUGUCACCGGUGUAUUACCCUAGUGGUCGACCGGUCUGAUGAGUCUACCGAGAGACGAAACAGC [ACCGAG],1.76 ± 0.057,1.301 ± 0.0053
GCUGUCACCGGUGUAUUACCCUAGUGGUCGACCGGUCUGAUGAGUCUGCCGGAAGACGAAACAGC [GCCGGA],1.95 ± 0.043,1.93 ± 0.065
GCUGUCACCGGUGUAUUACCCUAGUGGUCGACCGGUCUGAUGAGUCUUCCCGGAGACGAAACAGC [UCCCGG],1.95 ± 0.11,1.668 ± 0.0066
GCUGUCACCGGUGUAUUACCCUAGUGGUCGACCGGUCUGAUGAGUCUUCCCGCAGACGAAACAGC [UCCCGC],1.924 ± 0.018,1.51 ± 0.017
GCUGUCACCGGUGUAUUACCCUAGUGGUCGACCGGUCUGAUGAGUCUGCCGACAGACGAAACAGC [GCCGAC],1.891 ± 0.0051,1.55 ± 0.032
GCUGUCACCGGUGUAUUACCCUAGUGGUCGACCGGUCUGAUGAGUCUCCCCGUAGACGAAACAGC [CCCCGU],1.94 ± 0.022,1.92 ± 0.055

Variant,normalized RNA/DNA level with ligand (log10) [1],normalized RNA/DNA level without ligand (log10) [2]
GCUGUCACCGGUGUAUUACCCUAGUGGUCGACCGGUCUGAUGAGUCUCCCCGCAGACGAAACAGC [CCCCGC],1.986 ± 0.019,1.9 ± 0.047
GCUGUCACCGGUGUAUUACCCUAGUGGUCGACCGGUCUGAUGAGUCUCCCCGGAGACGAAACAGC [CCCCGG],1.985 ± 0.0052,1.97 ± 0.035
GCUGUCACCGGUGUAUUACCCUAGUGGUCGACCGGUCUGAUGAGUCUCCCGGCAGACGAAACAGC [CCCGGC],2 ± 0.041,1.859 ± 0.0099
GCUGUCACCGGUGUAUUACCCUAGUGGUCGACCGGUCUGAUGAGUCUGCCCGUAGACGAAACAGC [GCCCGU],1.962 ± 0.019,1.83 ± 0.044
GCUGUCACCGGUGUAUUACCCUAGUGGUCGACCGGUCUGAUGAGUCUCCCGAAAGACGAAACAGC [CCCGAA],1.9 ± 0.085,1.76 ± 0.033
GCUGUCACCGGUGUAUUACCCUAGUGGUCGACCGGUCUGAUGAGUCUCCCGACAGACGAAACAGC [CCCGAC],1.959 ± 0.0051,1.84 ± 0.033
GCUGUCACCGGUGUAUUACCCUAGUGGUCGACCGGUCUGAUGAGUCUCCCGAGAGACGAAACAGC [CCCGAG],1.89 ± 0.035,1.65 ± 0.022
GCUGUCACCGGUGUAUUACCCUAGUGGUCGACCGGUCUGAUGAGUCUCCCGAUAGACGAAACAGC [CCCGAU],1.97 ± 0.033,1.8 ± 0.029
GCUGUCACCGGUGUAUUACCCUAGUGGUCGACCGGUCUGAUGAGUCUACCGCAAGACGAAACAGC [ACCGCA],1.93 ± 0.082,1.845 ± 0.017
GCUGUCACCGGUGUAUUACCCUAGUGGUCGACCGGUCUGAUGAGUCUACCGCUAGACGAAACAGC [ACCGCU],1.925 ± 0.0096,1.89 ± 0.041
GCUGUCACCGGUGUAUUACCCUAGUGGUCGACCGGUCUGAUGAGUCUGCCCUAAGACGAAACAGC [GCCCUA],1.97 ± 0.052,1.8733 ± 0.00068
GCUGUCACCGGUGUAUUACCCUAGUGGUCGACCGGUCUGAUGAGUCUGCCCUCAGACGAAACAGC [GCCCUC],1.97 ± 0.035,1.88 ± 0.058
GCUGUCACCGGUGUAUUACCCUAGUGGUCGACCGGUCUGAUGAGUCUGCCGCUAGACGAAACAGC [GCCGCU],1.98 ± 0.05,1.95 ± 0.046
GCUGUCACCGGUGUAUUACCCUAGUGGUCGACCGGUCUGAUGAGUCUGCCGCCAGACGAAACAGC [GCCGCC],1.99 ± 0.068,1.81 ± 0.1
GCUGUCACCGGUGUAUUACCCUAGUGGUCGACCGGUCUGAUGAGUCUCCCGCUAGACGAAACAGC [CCCGCU],1.94 ± 0.056,1.99 ± 0.03
GCUGUCACCGGUGUAUUACCCUAGUGGUCGACCGGUCUGAUGAGUCUCCCGCGAGACGAAACAGC [CCCGCG],1.9 ± 0.029,1.84 ± 0.019
GCUGUCACCGGUGUAUUACCCUAGUGGUCGACCGGUCUGAUGAGUCUACCCGCAGACGAAACAGC [ACCCGC],1.91 ± 0.02,1.815 ± 0.016
GCUGUCACCGGUGUAUUACCCUAGUGGUCGACCGGUCUGAUGAGUCUACCCGUAGACGAAACAGC [ACCCGU],1.94 ± 0.024,1.82 ± 0.048
GCUGUCACCGGUGUAUUACCCUAGUGGUCGACCGGUCUGAUGAGUCUCCCCUUAGACGAAACAGC [CCCCUU],2 ± 0.045,1.913 ± 0.014
GCUGUCACCGGUGUAUUACCCUAGUGGUCGACCGGUCUGAUGAGUCUCCCCUAAGACGAAACAGC [CCCCUA],1.98 ± 0.061,1.855 ± 0.0056
GCUGUCACCGGUGUAUUACCCUAGUGGUCGACCGGUCUGAUGAGUCUCCCCUGAGACGAAACAGC [CCCCUG],1.927 ± 0.0039,1.81 ± 0.04
